Legend:
[1] = target: T1, human transferrin receptor (TfR) (human, UniProt P02786 1-760); assay: FACS on LS-174T cells, scFv on phage, anti-M13 detection (FIG. 7)
T1 construct: whole, on cells; Always the endogenous receptor on human tumour cell lines; no recombinant TfR was used; also called TfR/CD71

[2] = target: T1, human transferrin receptor (TfR); assay: cell-based or functional assay
murine TfR [3] = target: T2, murine TfR (murine, UniProt Q62351 1-763); assay: FACS on murine FMA3 cells, 50 µg/ml, penta-His detection (FIG. 16-d right)
T2 construct: whole, on cells; Endogenous receptor on murine cell lines; also called murine transferrin receptor
T2 sequence (Q62351 whole entry): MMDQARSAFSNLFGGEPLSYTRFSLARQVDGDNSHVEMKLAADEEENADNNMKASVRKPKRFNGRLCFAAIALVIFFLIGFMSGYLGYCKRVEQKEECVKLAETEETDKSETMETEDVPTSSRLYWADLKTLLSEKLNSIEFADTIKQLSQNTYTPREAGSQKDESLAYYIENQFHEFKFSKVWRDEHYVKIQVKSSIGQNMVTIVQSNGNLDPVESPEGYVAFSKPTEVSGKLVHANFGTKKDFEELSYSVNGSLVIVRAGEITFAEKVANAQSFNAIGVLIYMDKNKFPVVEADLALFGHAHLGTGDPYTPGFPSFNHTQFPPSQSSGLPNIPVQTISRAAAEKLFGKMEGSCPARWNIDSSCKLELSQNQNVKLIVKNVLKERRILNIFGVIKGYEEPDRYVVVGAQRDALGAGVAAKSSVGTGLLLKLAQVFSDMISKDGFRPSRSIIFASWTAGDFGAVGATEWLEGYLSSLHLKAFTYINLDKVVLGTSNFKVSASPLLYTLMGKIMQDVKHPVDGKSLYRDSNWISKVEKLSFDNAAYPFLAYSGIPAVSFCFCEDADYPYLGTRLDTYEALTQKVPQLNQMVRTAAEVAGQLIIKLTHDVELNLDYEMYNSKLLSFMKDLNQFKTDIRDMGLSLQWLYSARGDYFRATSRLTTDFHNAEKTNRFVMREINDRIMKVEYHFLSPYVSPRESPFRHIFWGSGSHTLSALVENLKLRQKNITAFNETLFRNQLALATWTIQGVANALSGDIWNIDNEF

murine TfR [4] = target: T2, murine TfR; assay: flow cytometry on murine Ba/F3 cells, 10 µg/ml, anti-human Fc-phycoerythrin (FIG. 18 (b))

T1 sequence (P02786 whole entry): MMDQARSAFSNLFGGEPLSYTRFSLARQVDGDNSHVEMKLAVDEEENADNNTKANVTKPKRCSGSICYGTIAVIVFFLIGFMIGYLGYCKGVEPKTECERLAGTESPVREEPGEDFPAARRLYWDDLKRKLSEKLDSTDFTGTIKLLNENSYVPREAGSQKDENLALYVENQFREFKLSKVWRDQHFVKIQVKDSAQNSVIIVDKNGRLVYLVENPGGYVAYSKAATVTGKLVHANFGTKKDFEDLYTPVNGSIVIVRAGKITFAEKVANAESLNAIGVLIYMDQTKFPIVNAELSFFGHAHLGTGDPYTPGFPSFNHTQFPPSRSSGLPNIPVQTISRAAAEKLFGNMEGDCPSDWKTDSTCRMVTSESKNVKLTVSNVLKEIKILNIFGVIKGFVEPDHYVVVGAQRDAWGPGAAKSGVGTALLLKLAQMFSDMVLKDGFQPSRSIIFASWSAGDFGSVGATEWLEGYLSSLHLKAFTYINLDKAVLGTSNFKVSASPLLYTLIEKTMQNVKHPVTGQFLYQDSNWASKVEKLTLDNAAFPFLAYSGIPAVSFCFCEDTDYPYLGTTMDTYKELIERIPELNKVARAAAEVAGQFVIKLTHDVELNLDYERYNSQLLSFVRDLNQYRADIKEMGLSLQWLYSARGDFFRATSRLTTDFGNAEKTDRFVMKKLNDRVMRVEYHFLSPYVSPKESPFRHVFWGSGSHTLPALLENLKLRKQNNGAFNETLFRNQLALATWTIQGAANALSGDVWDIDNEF

B1: scFv-3TG9 (scFv)
scFv: QVQLVESGGGLVEPGGSLRLSCAASGFTFSNYAINWVRQAPGKGLEWVANIHHDGNGKYYVDSVEGRFTISRDNAKNSLYLQMDSLRAEDTAIYYCARDGYGGYLDLWGQGTLVTVSSGGGGSGGGGSGGGGSSELTQDPAVSVALGQTVRITCQGDSLRSYYASWYQQKPGQAPVLVIYGKNNRPSGIPDRFSGSGSGNTASLTITGAQAEDEADYYCAAWDDSLSGPVFGGGTKVTVLG
notes: Monovalent human scFv, about 28 kDa; on phage or soluble depending on the assay; tags not described; also called anti-TfR scFv
- binding result [1]: binds

B2: scFv-3TF2 (scFv)
scFv: QVQLQQSGGGVVQPGGSLRLSCAASEFTFSASGMHWVRQAPGKGLEWMAFIAYDGNQKFYADSVKGRFTISRDNSKNTLYLQMDSLRGEDTAVYYCAKEMQREGYFDYWGQGTLVTVSSGGGGSGGGGSGGGGSNFMLTQDPAVSVALGQTVRITCQGDSLRSYYASWYQQKPGQAPVLVIYGKNNRPSGIPDRFSGSKSGNSASLDISGLQSEDEADYYCATWDDNLSGPIFGGGTKVTVLG
notes: as for B1
- binding result [1]: binds

B3: scFv-3 GH9 (scFv)
scFv: QVQLAESGGGLVKPGGSLRLSCAASGFTFSDYYMSWIRQAPGKGLEWVSYISTSGSSIYYVDSVKGRFTISRDNAKNSLYLQMDSLRDDDTAVYYCARDLHGDYAFDSWGQGTLVTVSSGGGGSGGGGSGGGGSSELTQDPAVSVALGQTVRITCQGDSLRSYYASWYQQKPGQAPVLVIYGKNNRPSGIPDRFSGSKSGNSASLDISGLQSEDEADYYCATWDDNLSGPIFGGGTKVTVLG
notes: as for B1
- binding result [1]: binds

B4: scFv-3TF12 (scFv)
scFv: QVQLQESGGGLVQPGGSLRLSCAASGFSFNTYTMHWVRQAPGKGLEWVADIAYDGSTKYYADSVKGRFTISRDNAKNSLYLQMNSLRAEDTAVYYCARDAVAGEGYFDLWGRGTLVTVSSGGGGSGGGGSGGGGSQSALTQDPAVSVALGQTVRITCQGDSLRSYYASWYQQLPGTAPKLLIYRNNQRPSGVPDRFSGSKSGTSASLAISGLRSEDEADYYCAAWDDSLSAWVFGGGTKLTVLGA
- IC50 (µg/ml), proliferation test on the line ERY-1, three days [2]: 0.35 µg/mL

B5: F12CH (other)
scFv: B4 scFv
notes: Bivalent dimer of the scFv 3TF12, about 55 kDa, made in bacteria, held by a bond that DTT reduces; no Fc; also called anti-TfR F12CH; 3TF12 in the scFvCH format; not shown: tail from the bacterial vector pSYN-HIS-CYS (histidine tag, cysteine for dimerisation)
- IC50 (µg/ml), proliferation test on the line ERY-1, three days [2]: 0.1 µg/mL
- binding result (murine TfR [3]): binds

B6: F12-Fc (Fc fusion)
chain: B4 scFv
notes: Homodimer of about 110 kDa (2 x 55 kDa), made in CHO cells; also called scFv-F12-Fc; antibody F12 in the format scFv-Fc; not shown: constant CH2 and CH3 domains of a human IgG1 (vector pFuse-hG1)
- binding result (murine TfR [4]): binds

Source: patent US20130045206A1 (published 2013)
